According to US20260035484A1 (LONGBIO PHARMA SUZHOU, published 2026):
Substitutions are numbered along the chain they refer to.

B1: chimeric antibody SE2 (mouse SE2 variable regions, human IgG1/kappa constant regions) (antibody, V domains shown)
VH: DVQLLESGPGLVKPSQSLSLTCTVTGYSITSDYAWNWIRQFPGNKLEWMGYISYSGSTRYNPSLKSRISISRDTSKNQFFLQLNSVTSEDTATYFCVYGSSQRFFDYWGQGTTLTVSS
VL: DILMTQSHKFMSTSIGDRVSITCKASQDVSIDVAWYHQKPGQSPKLLIYSASFRYAGVPDRFTGSGSGTDFTLTISSVQAEDLAVYYCQQHYSLFTFGSGTKLEIKR
notes: also called chimeric recombinant monoclonal antibody
B2: chimeric antibody SE5 (mouse SE5 variable regions, human IgG1/kappa constant regions) (antibody, V domains shown)
VH: B1 VH with M49L, S53N, S57T
VL: B1 VL with L3V, I15V, H37Q, F53W, G66R, F71Y, S93N, K106Q
notes: as for B1
B3: mouse-derived monoclonal antibody SE2 (antibody, V domains shown)
VH: B1 VH
VL: DILMTQSHKFMSTSIGDRVSITCKASQDVSIDVAWYHQKPGQSPKLLIYSASFRYAGVPDRFTGSGSGTDFTLTISSVQAEDLAVYYCQQHYSLFTFGSGTKLEIK
notes: the cloning primer was homologous to the mouse IgG1 heavy chain constant region; also called SE2 mouse hybridoma antibody; mouse-derived parent antibody of SE2
B4: mouse-derived monoclonal antibody SE5 (antibody, V domains shown)
VH: B1 VH with M49L, S53N, S57T
VL: B3 VL with L3V, I15V, H37Q, F53W, G66R, F71Y, S93N, K106Q
notes: the cloning primer was homologous to the mouse IgG1 heavy chain constant region; also called SE5 mouse hybridoma antibody; mouse-derived parent antibody of SE5
B5: Humanized antibody SE2 (antibody, human IgG1, kappa, V domains shown)
VH: QVQLQESGPGLVKPSQTLSLTCTVSGYSITSDYAWNWIRQPPGNGLEWMGYISYSGSTRYNPSLKSRITISRDTSKNQFSLKLSSVTAADTAVYFCVYGSSQRFFDYWGQGTLVTVSS
VL: DILMTQSPDSLAVSLGERATINCKASQDVSIDVAWYQQKPGQPPKLLIYSASFRYAGVPDRFSGSGSGTDFTLTISSLQAEDVAVYYCQQHYSLFTFGSGTKLEIKR
notes: also called SE2 humanized antibody; humanized SE2
B6: Humanized antibody SE5 (antibody, human IgG1, kappa, V domains shown)
VH: B5 VH with M49L, S53N, S57T
VL: B5 VL with L3V, F53W, G66R, F71Y, S93N
notes: also called SE5 humanized antibody; humanized SE5

Assays:
[1] = target: T1, biotin-labelled human IgE-Fc (human, UniProt P01854 104-427, biotin-labelled); assay: blocking ELISA, inhibition ratio: FcεRIα-Fc coated, biotin-labelled human IgE-Fc (100 ng/mL) premixed with the antibody, streptavidin-HRP; blocked ligand FcεRIα-Fc
T1 construct: also called recombinant human IgE-Fc protein; Fc region (CH2-4) protein of human IgE
Method: The method specifically included diluting the recombinantly expressed human FcεRIα-Fc protein (with its amino acid sequence as set forth in SEQ ID NO: 51) with PBS to a final concentration of […], coating the ELISA plates (purchased from Corning, Product code: 42592) at 100 μL per well, and keeping at 4° C. overnight. The next day, the coating solution was discarded. The wells were blocked with 2.5% skimmed milk dissolved in PBS for 1 hour and washed with PBS containing 0.05% Tween-20. […] After discarding the supernatant, the wells were washed with PBS containing 0.05% Tween-20 and diluted with HRP-labelled streptavidin (purchased from Sangon Biotech, Product code: D111054-0001) at 1:1000 for detection. The inhibition ratio of different antibodies at different concentrations was calculated following the formula below: Inhibition ratio at antibody concentration of X (%)=(OD₄₅₀ readout at antibody concentration of 0-OD₄₅₀ readout at antibody concentration of X)/OD₄₅₀ readout at antibody concentration of 0×100.

[2] = target: T1, biotin-labelled human IgE-Fc; assay: blocking ELISA: FcεRIα-Fc coated, biotin-labelled human IgE-Fc (1 µg/mL) premixed with the antibody, streptavidin-HRP; blocked ligand FcεRIα-Fc
Method: The next day, the coating solution was discarded. The wells were blocked with 2.5% skimmed milk dissolved in PBS for 1 hour and washed with PBS containing 0.05% Tween-20. […] After discarding the supernatant, the wells were washed with PBS containing 0.05% Tween-20 and diluted with HRP-labelled streptavidin (purchased from Sangon Biotech, Product code: D111054-0001) at 1:1000 for detection.

[3] = target: T1, biotin-labelled human IgE-Fc; assay: blocking ELISA: FcεRIα-Fc coated, biotin-labelled human IgE-Fc (100 ng/mL) premixed with the antibody, streptavidin-HRP; blocked ligand FcεRIα-Fc
Method: (§1) The method specifically included diluting the recombinantly expressed human FcεRIα-Fc protein (with its amino acid sequence as set forth in SEQ ID NO: 51) with PBS to a final concentration of 1 μg/mL, coating the ELISA plates (purchased from Corning, Product code: 42592) at 100 μL per well, and keeping at 4° C. overnight. The next day, the coating solution was discarded. The wells were blocked with 2.5% skimmed milk dissolved in PBS for 1 hour and washed with PBS containing 0.05% Tween-20. […] After discarding the supernatant, the wells were washed with PBS containing 0.05% Tween-20 and detected by using HRP-labelled streptavidin (purchased from Sangon Biotech, Product code: D111054-0001).

[4] = target: T2, human IgE (abcam, Product code ab65866) (human, UniProt P01854-1 1-428); assay: MSD-SET, solution equilibrium titration
T2 construct: also called antigen human IgE
Method: The solution equilibrium titration (SET) was performed in PBS+0.1% of IgG-free BSAbuffer (PBSF), where the antigen human IgE (purchased from: abcam, Product code: ab65866) was kept constant at 10-100 pM and incubated with 3-fold serial dilutions of humanized antibodies starting from 0.1-100 nM. […] 20 nM of antibodies diluted in PBS were coated onto standard binding MSD-ECL plates (purchased from MSD, Product code: L15XA-3) at 4° C. overnight. The MSD-ECL plates were blocked with 1% of Casein for 30 min while shaking at 700 rpm, and then washed with washing buffer (PBS+0.05% Tween 20) three times. The samples incubated with 2-fold serial dilutions of antigen human IgE and humanized antibodies were added into the MSD-ECL plates, incubated for 150 s while shaking at 700 rpm, and then washed once. […] 1× reading buffer T (purchased from MSD, Product code: R92TC-1) was added to read on an MSD Sector Imager instrument (Model: MESO QuickPlex SQ 120). In a Prism-GraphPad6 software, the percentage of free antigens was plotted as a function of titrated antibodies and fitted into a quadratic equation to extract the KD values.

[5] = target: T1, biotin-labelled human IgE-Fc; assay: blocking ELISA: inhibition of biotin-labelled human IgE-Fc binding to coated FcεRIα-Fc
Method: as §1

T1 sequence (P01854 other isoform, or with tags, fused parts or gaps limits assumed): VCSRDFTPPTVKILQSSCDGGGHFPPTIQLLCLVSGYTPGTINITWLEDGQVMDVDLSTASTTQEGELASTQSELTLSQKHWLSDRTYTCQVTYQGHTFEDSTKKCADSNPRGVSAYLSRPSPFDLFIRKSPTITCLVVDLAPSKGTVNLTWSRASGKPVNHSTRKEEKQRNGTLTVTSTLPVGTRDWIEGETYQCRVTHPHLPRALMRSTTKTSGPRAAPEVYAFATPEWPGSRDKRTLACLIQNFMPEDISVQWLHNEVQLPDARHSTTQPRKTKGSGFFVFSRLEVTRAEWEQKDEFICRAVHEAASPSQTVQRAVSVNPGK
T2 sequence (P01854 other isoform, or with tags, fused parts or gaps): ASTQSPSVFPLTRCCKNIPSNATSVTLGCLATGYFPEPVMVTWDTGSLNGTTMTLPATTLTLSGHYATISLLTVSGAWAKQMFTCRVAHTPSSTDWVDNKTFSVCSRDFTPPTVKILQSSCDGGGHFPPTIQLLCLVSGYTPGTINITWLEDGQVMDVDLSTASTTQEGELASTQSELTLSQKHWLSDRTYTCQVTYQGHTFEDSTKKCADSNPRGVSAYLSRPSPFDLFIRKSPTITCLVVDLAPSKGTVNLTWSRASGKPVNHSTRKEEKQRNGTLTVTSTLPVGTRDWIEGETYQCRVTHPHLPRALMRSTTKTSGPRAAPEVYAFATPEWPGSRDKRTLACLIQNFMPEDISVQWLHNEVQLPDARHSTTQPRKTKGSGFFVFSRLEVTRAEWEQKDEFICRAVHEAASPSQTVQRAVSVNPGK

| Binder | IC50 (read off the curve) [1] [µg/mL] | IC50 (read off the curve) [2] [µg/mL] | IC50 (read off the curve) [3] [µg/mL] | Kd [4] [nM] | IC50 [5] |
| --- | --- | --- | --- | --- | --- |
| B1 | ~0.2 |  |  |  |  |
| B2 | ~0.08 |  |  |  |  |
| B3 | ~0.2 | ~0.3 |  |  |  |
| B4 | ~0.08 | ~0.2 | ~0.07 |  |  |
| B5 |  |  |  | 0.0109 | ~0.417 µg/mL |
| B6 |  |  | ~0.06 | 0.01 | ~0.266 nM |
